Results on one molecule are retold here after patent US20190248902A1 (published 2019).

The target in one experiment is T1, Human ASGR-2 (human, UniProt P07307 1-311).
T1 construct: Expressed on HEK 293 cells; cDNA GenBank NM_080913.3; also called huASGR-2; hASGR-2
T1 sequence: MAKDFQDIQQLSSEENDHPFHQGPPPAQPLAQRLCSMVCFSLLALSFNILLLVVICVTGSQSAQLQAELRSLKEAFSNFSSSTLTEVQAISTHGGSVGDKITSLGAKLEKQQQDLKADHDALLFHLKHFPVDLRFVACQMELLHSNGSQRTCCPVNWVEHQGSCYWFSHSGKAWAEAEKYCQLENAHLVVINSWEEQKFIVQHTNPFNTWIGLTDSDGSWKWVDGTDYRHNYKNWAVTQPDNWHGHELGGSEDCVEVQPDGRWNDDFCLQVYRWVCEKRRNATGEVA
Nature of the experiment: FACS on transfected HEK 293 cells; binding = signal at least 2x irrelevant IgG. The method, boiled down: (§1)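 Antibodies at normalized concentrations bound 1 h at 4° C to HEK 293 cells expressing each antigen, then Alexa Fluor 647 anti-Fc plus 7-AAD 15 min at 4° C, flow cytometry; empty-vector cells as negative. Alternatively, species ASGR-1 membrane preps on streptavidin beads, antibody 1 h RT, Alexa Fluor 488 anti-Fc; FACS buffer with 1 mM CaCl2 throughout.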

A further experiment concerns the target T2, Cyno ASGR-1 (cynomolgus monkey, UniProt P07306 1-291 (human entry)).
T2 construct: Expressed on HEK 293 cells or as membrane prep on beads; cDNA from XP_005582755; also called cynomologus monkey ASGR-1
T2 chain: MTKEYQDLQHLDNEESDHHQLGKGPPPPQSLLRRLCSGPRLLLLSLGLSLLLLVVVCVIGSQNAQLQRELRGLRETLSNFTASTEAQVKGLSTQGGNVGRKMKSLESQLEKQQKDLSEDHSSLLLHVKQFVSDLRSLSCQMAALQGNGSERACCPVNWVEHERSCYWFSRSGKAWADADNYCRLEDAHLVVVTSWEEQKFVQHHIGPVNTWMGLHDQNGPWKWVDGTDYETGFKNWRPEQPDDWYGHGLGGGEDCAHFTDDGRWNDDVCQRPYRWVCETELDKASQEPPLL
Nature of the experiment: FACS on transfected HEK 293 cells or membrane preps on beads; Y = signal at least 2x irrelevant IgG. The method, boiled down:
as §1

Another experiment addresses T3, Pig ASGR-1 (pig).
T3 construct: Expressed on HEK 293 cells or as membrane prep on beads; cDNA GenBank NM_001244458
T3 chain: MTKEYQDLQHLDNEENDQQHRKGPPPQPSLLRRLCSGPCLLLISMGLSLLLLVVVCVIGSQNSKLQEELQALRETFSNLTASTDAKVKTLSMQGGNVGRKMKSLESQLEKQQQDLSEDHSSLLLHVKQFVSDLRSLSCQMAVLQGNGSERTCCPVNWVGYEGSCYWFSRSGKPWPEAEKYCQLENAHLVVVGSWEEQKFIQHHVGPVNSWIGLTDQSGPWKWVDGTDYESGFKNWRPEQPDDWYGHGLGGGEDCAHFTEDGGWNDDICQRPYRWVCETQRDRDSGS
The description is as above. The method, boiled down:
as §1

A further experiment addresses T4, Mouse ASGR-1 (mouse, UniProt P34927 1-284).
T4 construct: Expressed on HEK 293 cells or as membrane prep on beads; cDNA GenBank BC022106.1; also called muASGR-1; mASGR-1
T4 sequence: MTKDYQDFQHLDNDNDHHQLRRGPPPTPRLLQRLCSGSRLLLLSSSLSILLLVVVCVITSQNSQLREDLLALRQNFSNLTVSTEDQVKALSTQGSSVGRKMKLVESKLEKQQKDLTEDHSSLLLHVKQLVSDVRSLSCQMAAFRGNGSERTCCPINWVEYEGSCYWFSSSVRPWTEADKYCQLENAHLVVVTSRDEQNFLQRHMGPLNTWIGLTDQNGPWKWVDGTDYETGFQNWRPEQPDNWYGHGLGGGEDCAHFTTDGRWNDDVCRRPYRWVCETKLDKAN
In words: FACS on transfected HEK 293 cells or membrane preps on beads; binding = signal at least 2x irrelevant IgG. The method, boiled down: as §1

Another experiment has as its target T5, Rat ASGR-1 (rat, UniProt P02706 1-284).
T5 construct: Expressed on HEK 293 cells or as membrane prep on beads; cDNA GenBank NM_012503
T5 sequence: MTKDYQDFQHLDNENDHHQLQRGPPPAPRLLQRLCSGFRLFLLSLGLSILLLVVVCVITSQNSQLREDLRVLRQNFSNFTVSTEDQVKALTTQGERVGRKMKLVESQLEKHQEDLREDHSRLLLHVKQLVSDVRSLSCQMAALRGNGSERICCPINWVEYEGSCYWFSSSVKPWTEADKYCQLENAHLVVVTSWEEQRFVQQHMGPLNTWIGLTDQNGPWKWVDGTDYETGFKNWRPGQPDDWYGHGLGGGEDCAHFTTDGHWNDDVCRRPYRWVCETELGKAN
Described as above. The method, boiled down: as §1

B1: 56E5 (antibody, V domains shown)
VH: QVQLVQSGAEVKKPGASVKVSCQASGYTFTGYHMHWVRQAPGQGLEWMGWINPNNNATNYAQKFQGRVTMTRDTSISTAYMELRRLRSDDTAVYHCARDGTSSFDYWGQGTLVTVSS
VL: DIQMTQSPSSVSASVGDRVTITCRASQGIRKWLAWYQQKPGKAPKLLIYAASSLQSGVPSRFSGSGSGTDFTLTISSLQPEDFATYYCQQANSFPFTFGPGTKVDIK
notes: Tested as hybridoma supernatant at normalized concentration
Regarding B1, the binding result in the experiment with Human ASGR-2 is “no binding”; in the experiment with Cyno ASGR-1 it was “binds”; with Pig ASGR-1, “binds”; in the experiment with Mouse ASGR-1 it was “no binding”; with Rat ASGR-1, “no binding”.
